Entries after “also recorded” stand apart in the source; their conditions may differ.
B1: PapG^LD N96S G104A: PapG lectin domain N96S with G104A ligand binding site mutation; SEQ ID NO: 16 (protein)
chain: METDTLLLWVLLLWVPGSTGWNNIVFYSLGNVNSYQGGNVVITQRPQFITSWRPGIATVTWNQCNGPEFADGSWAYYREYIAWVVFPKKVMTKNGYPLFIEVHNKGSWSEENTGDSDSYFFLKAYKWDERAFDAGNLCQKPGETTRLTEKFNDIIFKVALPADLPLGDYSVTIPYTSGIQRHFASYLGARFKIPYNVAKTLPRENEMLFLFKNIGG
B2: PapG^LD N96S WTv1: WT PapG lectin domain (V1, first PapG operon), N96S removes non-native glycosylation, His-tagged; SEQ ID NO: 13 (protein)
chain: METDTLLLWVLLLWVPGSTGWNNIVFYSLGNVNSYQGGNVVITQRPQFITSWRPGIATVTWNQCNGPEFADGSWAYYREYIAWVVFPKKVMTKNGYPLFIEVHNKGSWSEENTGDSDSYFFLKGYKWDERAFDAGNLCQKPGETTRLTEKFNDIIFKVALPADLPLGDYSVTIPYTSGIQRHFASYLGARFKIPYNVAKTLPRENEMLFLFKNIGG
modifications: His tag
B3: PapG^LD N96S G122A: PapG lectin domain N96S with G122A putative conformation stabilizing mutation; SEQ ID NO: 20 (protein)
chain: METDTLLLWVLLLWVPGSTGWNNIVFYSLGNVNSYQGGNVVITQRPQFITSWRPGIATVTWNQCNGPEFADGSWAYYREYIAWVVFPKKVMTKNGYPLFIEVHNKGSWSEENTGDSDSYFFLKGYKWDERAFDAGNLCQKPAETTRLTEKFNDIIFKVALPADLPLGDYSVTIPYTSGIQRHFASYLGARFKIPYNVAKTLPRENEMLFLFKNIGG
B4: PapG^DSF N96S N242S N286S: Full-length donor strand complemented PapG, fully aglycosylated at N96S, N242S and N286S, His-tagged (protein)
chain: WNNIVFYSLGNVNSYQGGNVVITQRPQFITSWRPGIATVTWNQCNGPEFADGSWAYYREYIAWVVFPKKVMTKNGYPLFIEVHNKGSWSEENTGDSDSYFFLKGYKWDERAFDAGNLCQKPGETTRLTEKFNDIIFKVALPADLPLGDYSVTIPYTSGIQRHFASYLGARFKIPYNVAKTLPRENEMLFLFKNIGGCRPSAQSLEIKHGDLSINSANNHYAAQTLSVSCDVPANIRFMLLRSTTPTYSHGKKFSVGLGHGWDSIVSVNGVDTGETTMRWYKAGTQSLTIGSRLYGESSKIQPGVLSGSATLLMILPGGSSGGADVQINIRGNVYIPP
B5: BMD576_PapG-DSF K172A_Thy1-GPI: monovalent PapG modRNA LNP; RNA construct SEQ ID NO: 66 (nucleic acid)
chain: AGGAGGACUGGUCGAACCUGCAUAGUGAUCAUAAGGUCAGCAUAGCCACCAUGGAGACCGACACCCUCCUGCUGUGGGUGCUGUUACUGUGGGUGCCCGGUAGCACCGGCUGGAACAACAUCGUGUUCUACAGCCUGGGCAACGUGAACAGCUACCAAGGCGGCAACGUGGUGAUCACACAGAGACCUCAGUUCAUCACAAGCUGGAGACCCGGCAUCGCCACCGUGACCUGGAAUCAGUGCAACGGCCCCGAGUUCGCCGACGGCAGCUGGGCCUACUACAGAGAGUACAUCGCCUGGGUGGUGUUCCCCAAGAAGGUGAUGACCAAGAACGGCUACCCCCUGUUCAUCGAGGUGCACAACAAGGGCAGCUGGAGCGAGGAGAACACCGGCGACAGCGACAGCUACUUCUUCCUGAAGGGCUACAAGUGGGACGAGAGAGCCUUCGACGCCGGCAACCUGUGUCAGAAGCCGGGGGAGACCACAAGACUUACCGAGAAGUUCAACGACAUCAUCUUCAAGGUGGCCCUGCCCGCCGACCUGCCCCUGGGCGACUACAGCGUGACCAUCCCCUACACAAGCGGCAUUCAGAGACACUUCGCUAGCUACCUGGGCGCUAGAUUCGCCAUCCCCUACAACGUGGCCAAGACCCUGCCUAGAGAGAACGAGAUGCUGUUCCUGUUCAAGAACAUCGGCGGCUGCAGACCUAGCGCUCAGAGCCUGGAGAUCAAGCACGGCGACCUGAGCAUCAACAGCGCCAACAACCACUACGCCGCUCAGACCCUGAGCGUGAGCUGCGACGUGCCCGCCAACAUCAGAUUCAUGCUGCUGAGAUCAACCACCCCCACCUACAGCCACGGCAAGAAGUUCAGCGUGGGCCUGGGCCACGGCUGGGACAGCAUCGUGAGCGUGAACGGCGUGGACACGGGCGAGACCACUAUGCGUUGGUACAAGGCCGGCACACAGAGCCUGACCAUCGGCAGCAGACUGUAUGGCGAAAGCUCCAAAAUCCAACCCGGCGUGCUGUCGGGGAGCGCCACCCUGCUGAUGAUACUGCCCGGAGGCAGCAGCGGCGGCGCCGACGUGCAGAUCAACAUCAGAGGCAACGUGUAUAUUCCGCCUAGCAGUGGUGGUGGGGGUAGCUCCGGCUCCGGAAGCAGCUGCGAGGGCAUCAGCCUGCUGGCUCAGAACACAAGCUGGCUGCUGCUGCUGCUGCUGAGCCUGAGCCUGCUGCAAGCCACCGACUUCAUGAGCCUGUGAUGAGCUCGCUUUCUUGCUGUCCAAUUUCUAUUAAAGGUUCCUUUGUUCCCUAAGUCCAACUACUAAACUGGGGGAUAUUAUGAAGGGCCUUGAGCAUCUGGAUUCUGCCUAAUAAAAAACAUUUAUUUUCAUUGCAAAAAAAAAAAAAAAAAAAAAAAAAAAAAAAAAAAAAAAAAAAAAAAAAAAAAAAAAAAAAAAAAAAAAAAAAAAAAAAAAA
modifications: modRNA in LNP

Experiments:
[1] = PapG Luminex ligand binding assay with globoside GbO4; details: result in words
Experimental: 9. PapG Ligand Binding Assay with Globoside GbO4
To determine the ability of PapGLD mutants to bind the porcine derived globotetraosyl ceramide ligand GalNAc-Gal-Gal-Glc-ceramide (GbO4), a Luminex ligand binding assay was developed. Surfactant Protein-A (SP-A) was coupled to the surface of MagPlex beads by EDC/NHS, to capture the lipid tail of the globotetraosyl ceramide. The Globotetraosyl ceramide/SP-A beads were incubated with an eight-point threefold titration of PapG in a 96 well flat bottom white plate with final volume of 100 microliters of 50 mM HEPES PH 7.4, 10 mM NaCl, 0.0005% Tween 20 shaking at 300 rpm, 4° C. overnight. After 20-24 hours the ligand binding plates were read on a FlexMap 3D plate reader for measurement of well-bead region specific MFI. Ligand binding equilibrium dissociation constants (Kd) were calculated assuming one site specific binding and interpolated using non-linear curve fitting (GraphPad Prism) as the ligand concentration needed to achieve half-maximal binding. The Luminex derived apparent Kd values are based on approximately fifty bead counts per assay sample.
Binding of PapG proteins to GbO2 or GbO4 ligands was evaluated using a Luminex platform wherein ligands were coupled to MagPlex beads via surfactant protein A (for […]) or directly using […] conjugation (for […]). This assay was used to rank order binding affinities of the mutants, reported as Kd values interpolated from protein antigen titration curves (Table 7).

[2] = Thermal shift (SYPRO orange) melting temperature, apo form; assay type: physicochemical; details: apo state, PBS pH 7.4
Experimental: PapG proteins were added to assay buffer (consisting of 4% DMSO, 1:1000 dilution of SYPRO orange (Invitrogen S6650) in PBS pH 7.4) at a final concentration of […]. Melt curves were analyzed in a QuantStudio 6 Real-time PCR system (ThermoFisher) using a dissociation protocol from 25° C. to 99° C., at 0.05° C./second. ROX was specified as the reporter.
The thermal stability of PapG WT and mutant proteins were determined using a SYPRO orange thermal shift-based differential scanning fluorimetry assay, wherein Tm designates the temperature at which 50% of the protein is unfolded. Non-covalent ligands often stabilize protein targets upon specific binding, resulting in an increase in protein melting temperature. Tm were therefore determined in the presence and absence of GbO3 for PapG, and the difference in Tm (ΔTm) of protein in the presence of ligand relative to the apo form was calculated.

[3] = system: E. coli strain CFT073 expressing the fimbrial adhesin PapG; test: PapG hemagglutination inhibition (HAI) assay on sera of mice immunized with PapG modRNA LNPs; assay type: in vivo; details: 1 μg, 50 μl IM
Source text: Escherichia coli to the uroepithelium of human kidney. The PapG lectin binds to the globoside (GbO4) glycolipid, which is enriched in urinary tract tissue and consists of the tetrasacharide GalNAcβ1-3Galα1-4Galβ1-4Glc linked to ceramide. Here we present the use of a hemagglutination inhibition assay (HAI) to determine vaccine functional responses to protein subunit PapG or mRNA-expressed PapG antigens. In this assay the agglutination of human red blood cells (hRBCs) expressing GbO4 is caused by live E. coli CFT073 bacteria expressing PapG. The HAI assay measures the ability of PapG-elicited antibodies to prevent hRBC agglutination, exemplifying inhibition of the key bacterial adherence mechanism leading to clinical pyelonephritis. The assay was used to characterize the functional activity of PapG monoclonal antibodies (mAbs) raised against a PapG lectin domain subunit antigen. PapG HAI data from a mouse immunogenicity study are described that evaluated various 5 monovalent PapG modRNA LNPs and a PapG subunit comparator.
In this mouse study immunogenicity of different PapG mRNA constructs were evaluated. […]
iii. PapG Hemagglutination Inhibition Assay (HAI) 1. Preparation of Single Use Frozen E. coli CFT073 Banks Frozen bacterial stocks for use in the PapG HAI are stored at a concentration of ˜15 OD/mL. For stock preparation, take 6 ×100 μL of frozen parental strain CFT073 glycerol stock to seed six overnight cultures with ˜85 mL Luria's Broth (LB) each in 250 mL vented flasks. Flasks are shaken at 200 rpm and 37° C. overnight. On the same day, prepare 100 mL LB media with 30% glycerol and 0.4% sucrose by mixing […] 80% Glycerol with 0.8 mL 50% Sucrose in 64 mL LB and pre-chill at 4° C. After ˜16 h growth, determine the OD600 nm of each flask with the SpectraMax M5e plate reader by adding 100 μL culture to 900 μL LB (1:10 dilution). After reading the OD600, harvest cells by pelleting in a centrifuge at 4,000g, 4° C., for 30 minute. Determine the total OD of each of the six flasks, by multiplying the volume by OD/mL of each flask and divide by 15 OD to give the appropriate pellet resuspension volume. Discard supernatants and resuspend all pellets in the pre-chilled LB cryopreservant containing 30% glycerol and 0.4% sucrose, with a final volume as calculated above. Pool all resuspended pellets and mix gently, then aliquot into 1 mL/cryotube, and freeze at −70° C.
2. Preparing 10% hRBC Working Solution From Stock
Gently mix human red blood cells (hRBC) bottle (Rockland) by rocking ˜20×times, pipet out 10 mL of the hRBCs into a 15 ml conical tube. Centrifuge at 2,000 rpm(˜990×g) for 10 minutes and 4° C. Aspirate and discard the supernatant, then resuspend the pellet with 9 mL 4° C. PBS. The packed hRBCs in 15 mL conical tube should constitute roughly 1 mL of this total volume. Store these 10% hRBCs at 4° C. until use. […]
iv. PapG Hemagglutination Inhibition (HAI) Assay
The PapG hemagglutination inhibition (HAI) assay uses human red blood cells (hRBCs), which naturally express the PapG ligand GbO4 (globotetraosyl ceramide) on the cell surface, and the E. coli strain CFT073 expressing the fimbrial adhesin PapG. Upon mixing bacteria with hRBCs, […] cells remain suspended (presenting as a cloudy well), while no binding results in the red blood cells falling out of solution towards the center of the well (observed as pellet).
The total final well volume is 100 μL, with serum dilutions comprising 25 μL of this volume, strain CFT073 cells in […] volume, and hRBCs in a 50 μL volume. The assay plate is a V-bottom plate to which 25 μL 4° C. PBS is initially added to all wells. The positive control wells receive an additional 25 μL 4° C. PBS. The no-serum negative control consists of E. coli CFT073 cells plus hRBCs only (resulting agglutinated well appears cloudy). To accommodate pre-diluted sera transferred from the serum Master Dilution plate (MDP) an extra 5 μL 4° C. PBS is added to wells in Row A of the assay plate (columns 1 to 12). […]

| Molecule | binding to GbO4 ligand [1] | Tm (Ave.) [2] [°C] | Step Titer GMT (HAI) ([3]; weeks 0, 4, bleed week 6, GMT of individual titers) | Step Titer Pool (HAI) ([3]; weeks 0, 4, bleed week 6, serum pool) |
| --- | --- | --- | --- | --- |
| B1 | prevent binding to GbO4; also recorded: lower the binding affinity; also recorded: eliminate ligand binding | 64.54 |  |  |
| B2 |  | 61.29 |  |  |
| B3 | reduced binding |  |  |  |
| B4 |  | 61.82 |  |  |
| B5 |  |  | 85,681 | 81,000 |

Reference: patent US20260061042A1, “POLYNUCLEOTIDE COMPOSITIONS AND USES THEREOF” (Pfizer Inc., priority 2024, published 2026)
